Test results reported in ChEMBL document CHEMBL6109039, “Designed and synthesized novel tripeptides targeting diabetes and its related pathologies” (Eur J Med Chem, 2025).

What was measured:
[1] = compound: N=C(N)NCCC[C@H](N)C(=O)N[C@@H](Cc1c[nH]c2ccccc12)C(=O)N[C@@H](Cc1c[nH]c2ccccc12)C(=O)O; assay: Inhibition of porcine pancreatic Alpha-amylase using starch as substrate assessed as Km pre-incubated for 20 mins followed by substrate addition and measured after 15 mins by Lineweaver-Burk plot analysis (reference value: 0.657 mM); conditions: Sus scrofa; time 35.0 min
[2] = compound: N=C(N)NCCC[C@H](N)C(=O)N[C@@H](Cc1c[nH]c2ccccc12)C(=O)N[C@@H](Cc1c[nH]c2ccccc12)C(=O)O; assay: Inhibition of porcine pancreatic Alpha-amylase using starch as substrate assessed as maximum velocity pre-incubated for 20 mins followed by substrate addition and measured after 15 mins by Lineweaver-Burk plot analysis (reference value: 0.666); conditions: Sus scrofa; time 35.0 min

B1: Pancreatic alpha-amylase (Sus scrofa), P00690 (protein)
chain: MKLFLLLSAFGFCWAQYAPQTQSGRTSIVHLFEWRWVDIALECERYLGPKGFGGVQVSPPNENIVVTNPSRPWWERYQPVSYKLCTRSGNENEFRDMVTRCNNVGVRIYVDAVINHMCGSGAAAGTGTTCGSYCNPGNREFPAVPYSAWDFNDGKCKTASGGIESYNDPYQVRDCQLVGLLDLALEKDYVRSMIADYLNKLIDIGVAGFRIDASKHMWPGDIKAVLDKLHNLNTNWFPAGSRPFIFQEVIDLGGEAIQSSEYFGNGRVTEFKYGAKLGTVVRKWSGEKMSYLKNWGEGWGFMPSDRALVFVDNHDNQRGHGAGGASILTFWDARLYKVAVGFMLAHPYGFTRVMSSYRWARNFVNGQDVNDWIGPPNNNGVIKEVTINADTTCGNDWVCEHRWRQIRNMVWFRNVVDGQPFANWWANGSNQVAFGRGNRGFIVFNNDDWQLSSTLQTGLPGGTYCDVISGDKVGNSCTGIKVYVSSDGTAQFSISNSAEDPFIAIHAESKL
For B1, the Km [1] was 704 µM and the Vmax [2] was 0.574.
